Starred links: 1 amine or outer side, 2 acyl side, 3 side chain; linkers in the order of their positions; H or OH if unused. Positions of bridges follow the written chain, without caps; N, C: chain ends. Non-standard residues stand in square brackets, D forms with d. Primed or numbered codes have the meaning given here. *: point of attachment. B5(10) = 2-amino-2-(pent-4-en-1-yl)hept-6-enoic acid, bis(4-pentenyl)glycine, stitching residue bearing both staples, C=CCCCC(CCCC=C)(N[*:1])C(=O)[*:2]; PyrS2″ = (S)-3-amino-1-((pent-4-en-1-yloxy)carbonyl)pyrrolidine-3-carboxylic acid (stapling residue), C=CCCCOC(=O)N1CC[C@@](N[*:1])(C(=O)[*:2])C1; B5(17) = 2,2-bis(4-pentenyl)glycine = 2-amino-2-(pent-4-en-1-yl)hept-6-enoic acid, stitching residue, C=CCCCC(CCCC=C)(N[*:1])C(=O)[*:2]; B5(4) = 2,2-bis(4-pentenyl)glycine = 2-amino-2-(pent-4-en-1-yl)hept-6-enoic acid (stitching residue), C=CCCCC(CCCC=C)(N[*:1])C(=O)[*:2]; B5(5) = 2,2-bis(4-pentenyl)glycine, 2-amino-2-(pent-4-en-1-yl)hept-6-enoic acid (stitching residue), C=CCCCC(CCCC=C)(N[*:1])C(=O)[*:2]; TfeGA = (S)-2-amino-3-((carboxymethyl)(2,2,2-trifluoroethyl)amino)propanoic acid, O=C([C@H](CN(CC(=O)[*:3])CC(F)(F)F)N[*:1])[*:2]; PyrS2 = (S)-3-amino-1-((pent-4-en-1-yloxy)carbonyl)pyrrolidine-3-carboxylic acid, C=CCCCOC(=O)N1CC[C@@](N[*:1])(C(=O)[*:2])C1; Phe(2-Cl) = N[C@@H](Cc1ccccc1Cl)C(=O)O; Bta = N[C@@H](Cc1csc2ccccc12)C(=O)O; αAllylPro = C=CC[C@@]1(C(=O)O)CCCN1; tBuAla = CC(C)(C)C[C@H](N)C(=O)O; S8 = C=CCCCCCC[C@](C)(N)C(=O)O; Thr(ol) = C[C@@H](O)[C@H](N)CO; Alaol = C[C@@H](CO)N*
T1: beta-catenin in DLD1 TCF/LEF luciferase reporter cells (Homo sapiens (Human), UniProt P35222 1-781)
T1 sequence: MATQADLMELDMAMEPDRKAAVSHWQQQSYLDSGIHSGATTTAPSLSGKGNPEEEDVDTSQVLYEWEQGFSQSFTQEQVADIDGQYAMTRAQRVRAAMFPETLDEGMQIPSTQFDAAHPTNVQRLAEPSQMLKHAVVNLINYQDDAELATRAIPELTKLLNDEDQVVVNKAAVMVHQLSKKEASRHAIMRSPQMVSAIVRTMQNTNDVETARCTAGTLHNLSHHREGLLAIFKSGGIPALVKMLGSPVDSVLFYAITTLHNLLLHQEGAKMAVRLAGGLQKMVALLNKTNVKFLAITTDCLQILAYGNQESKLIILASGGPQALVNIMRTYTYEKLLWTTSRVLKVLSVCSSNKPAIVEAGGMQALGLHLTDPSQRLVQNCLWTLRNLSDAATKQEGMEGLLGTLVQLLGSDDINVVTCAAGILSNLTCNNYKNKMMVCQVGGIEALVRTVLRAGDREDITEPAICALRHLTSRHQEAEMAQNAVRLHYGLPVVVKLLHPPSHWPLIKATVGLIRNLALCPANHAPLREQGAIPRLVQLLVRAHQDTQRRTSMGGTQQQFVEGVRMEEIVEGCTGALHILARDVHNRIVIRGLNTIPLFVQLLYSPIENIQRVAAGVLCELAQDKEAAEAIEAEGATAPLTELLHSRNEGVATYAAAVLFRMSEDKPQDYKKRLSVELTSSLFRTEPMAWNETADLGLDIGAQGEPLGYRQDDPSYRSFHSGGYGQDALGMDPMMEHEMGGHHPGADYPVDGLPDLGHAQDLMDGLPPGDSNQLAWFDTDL

T2: B-cat-Halo (UniProt P35222 1-781, HaloTag NanoBRET 618 Ligand bound in the assay)
T2 construct: Transfected into HEK293 cells for the NanoBRET assay; also called beta-catenin HaloTag NanoBRET construct; not shown: HaloTag
T2 sequence (looked up): T1 sequence

T3: B-cat-Halo (UniProt P35222 1-781)
T3 construct: Expressed by transfection in HEK293 cells for the NanoBRET assay; also called beta-catenin HaloTag NanoBRET construct; not shown: HaloTag
T3 sequence (looked up): T1 sequence

T4: full-length beta-Catenin (Uniprot ID P35222) (Homo sapiens (Human), UniProt P35222 1-781)
T4 construct: also called bCat; B-Catenin
T4 sequence: T1 sequence

T5: full-length beta-Catenin (Uniprot ID P35222) (Homo sapiens (Human), UniProt P35222 1-781)
T5 construct: also called bCat; B-Catenin
T5 sequence: T1 sequence

T6: full-length beta-Catenin (Uniprot ID P35222) (Homo sapiens (Human), UniProt P35222 1-781)
T6 construct: also called bCat; B-Catenin
T6 sequence: T1 sequence

B1: I-730 (peptide)
peptide: XDLXDEAAFNXFXQA
modifications: not fully specified; N-terminal Ac; C-terminal NH2; PL3 at 1, B5 at 4, S8 at 11, BztA at 13; stapled PL3-B5 and B5-S8 by olefin metathesis
notes: Stapled peptide; also called Ac-PL3-Asp-Leu-B5-Asp-Glu-Ala-Ala-Phe-Asn-S8-Phe-BztA-Gln-Ala-NH2
B2: I-731 (peptide)
peptide: Ac-[αAllylPro]DL[B5(17)]DEAAFN[S8]F[Bta]Q[dA]-NH2
modifications: staple 1-4, 4-11
notes: also called Ac-PL3-Asp-Leu-B5-Asp-Glu-Ala-Ala-Phe-Asn-S8-Phe-BztA-Gln-dAla-NH2
B3: I-750 (peptide)
peptide: Ac-[αAllylPro]DL[B5(4)]DEAAFN[S8]F[Bta]S-NH2
modifications: staple 1-4, 4-11; also: olefin E/Z not assigned, earlier-eluting staple isomer
notes: Stapled peptide; same description as I-751, earlier eluting staple isomer composition; also called Ac-PL3-Asp-Leu-B5-Asp-Glu-Ala-Ala-Phe-Asn-S8-Phe-BztA-Ser-NH2
B4: I-749 (peptide)
peptide: XDLXDEAAFNXFXT
modifications: not fully specified; N-terminal Ac; C-terminal NH2; PL3 at 1, B5 at 4, S8 at 11, BztA at 13; stapled PL3-B5 and B5-S8 by olefin metathesis
notes: Stapled peptide; also called Ac-PL3-Asp-Leu-B5-Asp-Glu-Ala-Ala-Phe-Asn-S8-Phe-BztA-Thr-NH2
B5: I-563 (peptide)
peptide: XDLXDDAAFNXFXQ
modifications: not fully specified; N-terminal Ac; C-terminal NH2; non-natural PL3 (1), B5 (4), S8 (11), BztA (13); stapled PL3-B5 and B5-S8 by olefin metathesis
notes: Stapled peptide composition; also called Ac-PL3-Asp-Leu-B5-Asp-Asp-Ala-Ala-Phe-Asn-S8-Phe-BztA-Gln-NH2
B6: I-564 (peptide)
peptide: Ac-[αAllylPro]DL[B5(5)]DDAAFN[S8]F[Bta]H-NH2
modifications: staple 1-4, 4-11
notes: Stapled peptide composition; also called Ac-PL3-Asp-Leu-B5-Asp-Asp-Ala-Ala-Phe-Asn-S8-Phe-BztA-His-NH2
B7: I-1296 (peptide)
peptide: Ac-[αAllylPro]DA[B5(10)]NTAAFL[PyrS2]F[Bta]Q-NH2
modifications: staple 1-4, 4-11; not fully specified; printed as Ac-PL3-Asp-Ala-B5-Asn-Thr-Ala-Ala-Phe-Leu-PyrS2-Phe-BztA-Gln-NH2
B8: I-1286 (peptide)
peptide: Ac-[αAllylPro]NA[B5(10)]DTAAFL[PyrS2]F[Bta]Q-NH2
modifications: staple 1-4, 4-11; not fully specified; printed as Ac-PL3-Asn-Ala-B5-Asp-Thr-Ala-Ala-Phe-Leu-PyrS2-Phe-BztA-Gln-NH2
B9: I-1295 (peptide)
peptide: Ac-[αAllylPro]DA[B5(10)]NTAAFL[PyrS2]F[Bta]Q-NH2
modifications: staple 1-4, 4-11; not fully specified; printed as Ac-PL3-Asp-Ala-B5-Asn-Thr-Ala-Ala-Phe-Leu-PyrS2-Phe-BztA-Gln-NH2
B10: I-1287 (peptide)
peptide: Ac-[αAllylPro]NA[B5(10)]DTAAFL[PyrS2]F[Bta]Q-NH2
modifications: staple 1-4, 4-11; not fully specified; printed as Ac-PL3-Asn-Ala-B5-Asp-Thr-Ala-Ala-Phe-Leu-PyrS2-Phe-BztA-Gln-NH2
B11: I-567 (peptide)
peptide: XDVXDDAAFNXFXQ
modifications: not fully specified; N-terminal Ac; C-terminal NH2; non-natural PL3 (1), B5 (4), S8 (11), BztA (13); stapled PL3-B5 and B5-S8 by olefin metathesis
notes: Stapled peptide composition; also called Ac-PL3-Asp-Val-B5-Asp-Asp-Ala-Ala-Phe-Asn-S8-Phe-BztA-Gln-NH2
B12: I-566 (peptide)
peptide: XDVXDDAAFNXFXQ
modifications: not fully specified; N-terminal Ac; C-terminal NH2; non-natural PL3 (1), B5 (4), S8 (11), BztA (13); stapled PL3-B5 and B5-S8 by olefin metathesis
notes: as for B11

What follows are binders tested against T1, beta-catenin in DLD1 TCF/LEF luciferase … (assay: cell-based or functional assay).

Row | DLD1 4% Abs IC50 | Binder
1 | 3.8 µM | Ac-[αAllylPro]D[tBuAla][B5(4)]D[TfeGA]AAFT[PyrS2″][Phe(2-Cl)][Bta]-Alaol (staple 1-4, 4-11) [I-1242]
2 | 4.1 µM | Ac-[αAllylPro]D[tBuAla][B5(4)]DDAAFT[PyrS2″][Phe(2-Cl)][Bta][Thr(ol)] (staple 1-4, 4-11) [I-1245]

What follows are binders tested against T2, B-cat-Halo (assay: NanoBRET Abs IC50 in HEK293 cells; B-cat-Halo, competitor TCF4-Luc).

Row | IC50 | Binder
3 | 11.2 µM | B1
4 | 11.6 µM | B2
5 | 7.4 µM | B3
6 | 9 µM | B4

What follows are binders tested against T3, B-cat-Halo (assay: NanoBRET Abs IC50 in HEK293 cells; Bcat-Halo, TCF4-Luc as competitor).

Row | IC50 | Binder
7 | 15.7 µM | B5
8 | > 20 µM | B6

These binders were tested against T4, full-length beta-Catenin (Uniprot ID …) (assay: fluorescence polarization competition; full-length beta-catenin + 5FAM-TCF4(10-53) probe).
Procedure: (§1) The plate was incubated protected from light for 60 minutes at 20° C. prior to read. Reads were performed on a CLARIOstar plate reader (BMG Labtech) in duplicate, and data were fitted to a 1:1 binding model with hill slope using an in-house script. All provided concentrations are final concentrations.

Row | EC50 | Binder
9 | 3.79 µM | B7
10 | 10 µM | B8
11 | 10 µM | B9
12 | 10 µM | B10

These binders were tested against T5, full-length beta-Catenin (Uniprot ID …) (assay: fluorescence polarization competition; full-length beta-catenin, competitor 5FAM-TCF4(10-53) probe).
Procedure, shortened: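 Data fitted to 1:1 binding model with hill slope from duplicate reads taken after 60 minutes at 20° C. in the dark.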

Row | IC50 | Binder
13 | 35 nM | B1
14 | 34 nM | B2
15 | 43 nM | B3
16 | 40 nM | B4

These binders were tested against T6, full-length beta-Catenin (Uniprot ID …) (assay: competition fluorescence polarization; full-length beta-catenin, 5FAM-TCF4(10-53) probe as competitor).
Procedure: as §1

Row | IC50 | Binder
17 | 19 nM | B5
18 | 37 nM | B11
19 | 36 nM | B6
20 | 76 nM | B12

Source: US20240116985A1 (published 2024)
